# Data as given in the nanobody polyreactivity screen of Harvey et al. (2022).
# Assay: yeast display, Sf9 membrane polyspecificity reagent, FACS + sequencing; frameworks hold sequencing errors
# In short: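 Synthetic nanobody libraries on Saccharomyces cerevisiae BJ5465 were galactose-induced for 36–48 hours, stained 1 hour at 4 °C with 10% biotinylated, detergent-solubilized Sf9 membrane reagent and enriched on streptavidin microbeads. FACS then separated cells into low and high (top ~1%) gates by anti-HA (expression) and streptavidin (reagent binding) fluorescence. Genes were colony-PCR amplified, MiSeq 2 × 250 sequenced and CDR-length filtered. A clone's polyreactivity label is that of its gate of origin.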
row,Sequence,polyreactivity (PSR sort gate)
1,QVQFVESGGGLVQAGGSLRLSCAASGSIFSSYAMGWYRQAPGKERELVAVINSGGSTNYADSVKGRFTISRDNAKNTVYLHMNSLKPEDTAVYYCNAYGGTFHNTAAEFDYWGQGTQVTVSS,low polyreactivity
2,QVQFVESGGGLVQAGGSLRLSCAASGSTFQGYAMGWYRQAPGKERELVAAISRSGGRTYYADSVKGRFTISRDNAKNTVYLQMNSLKPEDTAVYYCAAEGHELTEGDSWGQGTQVTVSS,low polyreactivity
3,QVQFVESGGGLVQAGGSLRLSCAASGSTFQGYAMGWYRQAPGKERELVAAISRSGGRTYYADSVKGRFTISRDNAKNTVYLQMNSLKPEDTAVYYCAKYYWAPTGAHGGYGYWGQGTQVTVSS,low polyreactivity
4,QVQFVESGGGLVQSGGSLRLSCAASGSIFRAYAMGWYRPAPGKEREFVAAISRRGGSTSYADSVKGRFTISRDYAKNTVYLQMNSLKPEDTAVYYCAATYQILTTSAHDSWGQGTQVTVSS,high polyreactivity
5,QVQHEESGGGLVQAGGSLRLSCAASGYTFSFYAMGWSRQAPGKERELVAAISSSDGTTYYADSVKGRFTISRDNAKNTVYLQMNSLKPQDTAVYYCNTRYVRQVVGTYTLKTRYYWGQGTQVTVSS,high polyreactivity
6,QVQHGESGGGLVQAGGSLRLSCAASGRIFYYYAMGWYRQAPGKERELVAAITWNAGITYYADSVKGRFTISRDNAKNTVYLQMNSLKPEDSAVYYCAASRWARGRDYWGQGTQVTVSS,high polyreactivity
7,QVQHLESRGGLVQAGGSLRLSCAASGSIFASNAMGWYRPAPGKEREFVAAITWRTDRTYYADSVKGRYTISRDIAKNTVYLQMNSLKPEDTAVYYCNAGRRVYYYSAYYGGGYWGQGTQVTVSS,high polyreactivity
8,QVQHVDSGGCLVQAGGTLRLSCAASGFTLWAYAMGWYRQAPGKEREFVAVISRSDGSTYYADSVKGRFTISRENAKNTVYLQMNSLKPEDSAVYYCAAKHRGAKYDYWGQGTQVTVSS,low polyreactivity
9,QVQHVDSGGGLFQAAGSLRLSCAASGGTFSFYTMGWSRQGPGKERELVAAIDSTGRTNYADSVKGRFTISRDKAKNTVYLQMNSLKPEDSAVYYCSAGPPRADYDYWGQGTQVTVSS,low polyreactivity
10,QVQHVDSGGGLVQAGGSLRLSCAASGFIFAYNIMGWYRQAPGKERELVADISGTGSTNYADSVKGRFTISRDNAKNTVYLQMNSLKPEDTAVYYCATSGDRLVWGQGTLVTVSS,low polyreactivity
11,QVQHVDSGGRLVQAGGRLRLSCAASGRIITYYARGWNRQAPGKERELVAAISGRGGGTYYADSVKGRFTISRDNAKNTVYLQMNSLKPADTAVYYCNAYYSRLRYDYWGQGTQVTVSS,high polyreactivity
12,QVQHVESAGGLVQAAGSLRLSCAASGLSYSRYAMGWYRQAPGKERELVAAITWSGSSTYYADSVKGRFTISRDNAKNTVYLQMNSLKPEDTAVYYCAGRYGYSRGPYYRSDYWGQGTQVTVSS,high polyreactivity
13,QVQHVESAGGLVQEAGSLRLRCAASGSTFYSYAMGWSRQAPGKERELVAAISRSGGRTNYADSVKGRFTISRDIAKNTVYLQMNSLKPEDTAVYYCNARHYLSAYDYWGQGTQVTVSS,high polyreactivity
14,QVQHVESCGGLVQAGGSLRLSCAASGRIINSNDMGWYRQAPGKERELVAAISKRGGSTFYADSVKGRFTISRDNAKNTVYLQRNSLKPEDTAVYYCAADKWTYYYAVDSWGQGTQVTVSS,high polyreactivity
15,QVQHVESGAGLVQAGGSLRLSCAASGRTFYYYAMGWYRQAPGKERELVAAISTNGGSTSYADSVKGRFTISRDNAKNTVYLQMNSLKPEDSAVYYSAAYYRTPTDVEYDYWGQGTQVTVSS,high polyreactivity
16,QVQHVESGGALVQAGGSLRLSCAASGSTYYIYAMGWYRHGPGKERELVARISGSGGSTYYADSVKGRFTISRDNAKNTVYLQMNSLKPEDTAVYYCAADDIYKYYQYYAFQYFRYDYWGQGTQVTVSS,low polyreactivity
17,QVQHVESGGCLFQAGGILRLSCAASGIIFTYYDMGWYRQAPGKERELVAGIDYSGTSTYYADSVKGRFTISRDNAKNTVYLQMNSLKPEDTAVYYCAAVPVWVVYFSGEYYYWGQGTQVTVSS,high polyreactivity
18,QVQHVESGGCLVQARGSLRLSCASSGRTFDIYARGWYRHPPGKESELVAVISASGGSTYYADSVKGRFTISRDNAKNTVYLQMNSLKPEDTAVYYCAARYWFRFQYDYWGQGTQVTVSS,high polyreactivity
19,QVQHVESGGGIVQAGGSLRLSCAASGSIFVRYAMGWYRQAPGKERESVAAISASGSSTYYADSVKGRFTISRDNAKNTVYLQMNSLKPEDTADYYCNAVRARRFDYWGQGTQVTVSS,high polyreactivity
20,QVQHVESGGGIVQAGGSLRLSCAASGSIFYQYAMGWYRQSPGKERELVAASSRSGGSTYYADSVKGRFTISRHNAKNTVYLQMNSLKPEDTAVYYCAARAVRAAYDYWGQGTQVTVSS,low polyreactivity
21,QVQHVESGGGKVQAGGSLRLSCASSGFTIMSYAMGWYRQAPGKERELVAAISRSGGSTYYADSVKGRFTISRDKAKNTVYLQMISLKPEDTAVYYCAARSAFRKQFSRNNYWGQGSQVTVSS,high polyreactivity

row,Sequence,polyreactivity (PSR sort gate)
1,QVQHVESGGGLDQAARSLRLICAASGSIFTDNGMGWYRQAPGKERELVAAISWRGGTYYADSVKGRFTISRDNAKNSVYLQMNSLKPEDTAVYYCNADPEAEGNFEYYYWGQGTQVTVSS,low polyreactivity
2,QVQHVESGGGLDQAGGSLRLSCAASGITFEGYAMGWYRQAPGKERELVAAIRSSGTSTYYADSVKGRFTISRDNAKNTFYLQMISLKPEETAVYYCNRARSSYSYDYWGQGTQVTVSS,low polyreactivity
3,QVQHVESGGGLDQAGGSLRLSCAASGRTFSYYTMGWYRQAPGKERELVARISNRGTNTYYADSVKGRFTISRDNSKNTVYLQMNSLKPEDTAVYYCAKYYYTSIVGYDSWGQGTQVTVSS,low polyreactivity
4,QVQHVESGGGLDQAGGSLRLSCAASGSIFNGYAMGWYRQAPGKERELVADIRSGGSTYYADSVKGRFTISRDNAKNTVYLQMNSLKPEDTAVYYCAGDTITDGYDYWGQGTQVTVSS,low polyreactivity
5,QVQHVESGGGLDQAGGSLRLSCAASGSIYVGNEMGWSRQATGKETELVDTISWSGGSTYYADSVKGRFTISRDNAKNTVYLQMNSLKPEDTAVYYCAKTPYRRYRYGGYNYRTYDYWGQGTQVTVSS,low polyreactivity
6,QVQHVESGGGLFQAGGSLRLSCAASGQNFRPYALGWDRQAPGKERELVAAIRWSDDSTYFAVSVKGRFTILRDNAKNTVYLQLNSLKPEDTAVYYCNARWWYPTYYYWGQGSQVTVSS,high polyreactivity
7,QVQHVESGGGLLQAGGSLRLSCAASGFTFNANAMGWYRQAPGKERELVAVITRSGGRTYYADSVKGRFTISRDNAKNTVYLQMNSLKPEDTAVYYCNAKGWTRPPCYDYWGQGTQVTVSS,high polyreactivity
8,QVQHVESGGGLVQAGGILRLSCAASGFTFPAYTMGWYRQAPGKERELVAAITSSGGNTYYADSVKGRFTISRDNAKNTLCLQMNSLKPEDTAVYYCATVSVRWPSNDHVRYDYWGQGTQVTVSS,low polyreactivity
9,QVQHVESGGGLVQAGGNLRLSCPASGFTIYYYAMVCDRQAPGKERELVAGISKSGGITYYADSVKGRFTISRDNAKNTVYLQMNSLKPEDTAVYYCAAAEWYQFFIYRYTYEYWGQGSQVTVSS,low polyreactivity
10,QVQHVESGGGLVQAGGSLLLSCAASGSIFYLYAMGWYRQEPGKERELVATMSSSGGSTYYADSVKGRFTISRDNAKNTVYLQMNSLKPEDTAVYYCNADYIYYGTTYEYWGQGTQVTVSS,low polyreactivity
11,QVQHVESGGGLVQAGGSLRLGCPASGIIFIAYAMGWYRQAPGKERELVADISIGGSTNYADSVKGRFTISRDNAKYTVYLQMNSLKPEDTAVYYCAKRPKNKPVLGDYDHWGQGTQVTVSS,low polyreactivity
12,QVQHVESGGGLVQAGGSLRLICAASGFTFHLYAMGWYRQAPGKERELVASITYSGGSTYYADSVKGRFTISRDKAKNTVYLHMNSLKAEDTAFYYCNRYSSSYSYDYWGQATQVTVSS,high polyreactivity
13,QVQHVESGGGLVQAGGSLRLICAASGRIFLRNAMGWYRQAPGKERELVATITSRGGSTYYADAVKGRFTISRDNAKNTVYLQMNRLKPEDTAVYNCAAVPRRYRGFGYVYGGFYYWGQGTQVTVSS,low polyreactivity
14,QVQHVESGGGLVQAGGSLRLICAASGSTFYYNAMGWYRQAPGKERELVAAISFSGGSTYYADSVKGRFTISRDNAKNTVYLQMNSLKPDDTAVYYCNRVYYAFYVYYYSTYDYWGQGTQVTLSS,low polyreactivity
15,QVQHVESGGGLVQAGGSLRLSCAASASTLYRNAMGWYRQAPGKEREFVAAISWSGGSTYYADSVMGRFTISRDNAKNTVYLQMNSLKPEDTAVYYCNADTDRYWPYEYDYWGHGTQVTVSS,low polyreactivity
16,QVQHVESGGGLVQAGGSLRLSCAASGFIFASYTMGWYRQAPGKERELVATISRGGSTYYADSVKGRFTISRDNAKNTVYLQMNSLKPEATAVYYCATDVGKRAGYYGGVYPDFDYWGQGTQVTVSS,low polyreactivity
17,QVQHVESGGGLVQAGGSLRLSCAASGFIFPVNAMGWYRQAPGKERELVAAITYSTGSTYYADSVKGRFTISRDNAKNTVYLQMNSLKPEDTAVYSCAADVPPGEVVTNDYWGQGTQVTVSS,low polyreactivity
18,QVQHVESGGGLVQAGGSLRLSCAASGFISYFYAMGWYRQAPGKERELVPVNTQSGGSTYFADSVKGRFTISRDNAKNTVYLQMNSLKPEDTAVYYCNADTVRDYPFFSVSYYYWGQGTQVTVSS,low polyreactivity
19,QVQHVESGGGLVQAGGSLRLSCAASGFTFARYAMGWYRHAPGKERELVASISSSGDRTNYADSVKGRFTISRDNAKITVYLQMYSLKPEDTAVYYCNADFGYGWYLRYDYWGQGTQVTVSS,high polyreactivity
20,QVQHVESGGGLVQAGGSLRLSCAASGFTFTRYAMGWYRQAPGKERELVAAISRGGTTYADSVKGRFTISRDNAKNTVYLQMNSLKPEDTAVYYCNRLRYGYPQEFGYWGQGTQVTVSS,high polyreactivity
